The values that follow come from patent publication US20250084372A1, “IN VITRO DERIVATION OF GONADAL SOMATIC CELLS” (Conception Bisosciences, Inc., priority 2020, published 2025).

Common to all, as to type: cell-based, human
Assay [1] relates to ovarian somatic cells (OSCs). The experiment in a line: Concentration titration of BMP4, follistatin and FGF2 in OSC induction, qPCR for GATA4 and FOXL2. The method, then: Various concentration titrations of BMP4, Follistatin and FGF were tested in OSC induction, and the resulting cells were examined for expression of bipotential gonadal markers as well as that of granulosa markers.
The OSCs were induced based on the protocols described in Example 6, but with various concentrations of BMP4. Follistatin and FGF tested.
The OSC induction conditions were first tested by varying the BMP4 concentration. […] The gene expression of resulting cells was tested by qPCR for bi-potential gonadal cell markers (GATA4) as well as for granulosa cell markers (FOXL2) (FIGS. 12A and 12B respectively). Expression of GATA4 increased with higher BMP4 concentration, and FOXL2 expression appeared to peak at 10 ng/ml of BMP4 under the conditions tested.
Four different concentrations of follistatin were then tested in OSC induction, with the concentration of BMP4 kept constant at 20 ng/ml as previously described. The gene expression of resulting cells was tested by qPCR for bi-potential gonadal cell markers (GATA4) as well as for granulosa cell markers (FOXL2) (FIGS. 12C and 12D respectively). […] The generation of mature OSCs were also examined by FOXL2 expression. […] In subsequent experiments, OSC induction in the absence or at lower concentrations of follistatin was further explored.
Five different concentrations of FGF2 were then tested in OSC induction, with the concentration of BMP4 kept constant at 20 ng/mL and follistatin removed (Ong/mL). The gene expression of resulting cells were tested by qPCR for bi-potential gonadal cells (GATA4) as well as for granulosa cells (FOXL2) (FIGS. 12E and 12F respectively). As shown by FIGS. 12E and 12F, both GATA4 expression and FOXL2 expression reached saturation at 20 ng/ml of FGF2.

Assay [2] concerns ovarian somatic cells (OSCs). The experiment in a line: OSC induction with different BMP isoforms, marker qPCR. Conditions: 20 ng/mL BMP in granulosa double medium. The method, then: Gonadal somatic cells were induced in granulosa double medium comprising different BMP isoforms, and the expression of bipotential gonadal markers as well as that of granulosa markers were measured in the resulting cells.
The expression of bipotential gonadal markers (WT1, LHX9, GADD45G and GATA4) as well as granulosa markers (FOXL2, NR1H4 and KITLG) were measured by qPCR in the resulting cells.

For assay [3], the system named is ovarian somatic cells (OSCs). The experiment in a line: OSC induction with different FGF family members, marker expression. The conditions noted are these: 10 ng/mL FGF in granulosa double medium. The method, then: Fibroblast growth factors (FGFs) are a large family of proteins that are important for signaling events in a wide variety of processes. […] Briefly, gonadal cells were induced in granulosa doublemedium comprising different FGFs, and the expression of bipotential gonadal markers as well as that of granulosa markers were measured in the resulting cells.
The replated cells from the second intermediate population were incubated in the granulosa double medium (also referred to as gonadal induction medium or OSC induction medium) according to Table 18, with the same concentration of either FGF2, 9, 10, 16, 17, 18 or 19. The expression of bipotential gonadal markers (WT1, LHX9, GADD45G and GATA4) as well as granulosa markers (FOXL2, NR1H4 and KITLG) were measured in the resulting cells.

B1: BMP4: BMP isoform in gonadal induction medium (protein, UniProt P12644 293-408, looked up)
Bone morphogenetic protein 4: SPKHHSQRARKKNKNCRRHSLYVDFSDVGWNDWIVAPPGYQAFYCHGDCPFPLADHLNSTNHAIVQTLVNSVNSSIPKACCVPTELSAISMLYLDEYDKVVLKNYQEMVVEGCGCR
In the case of B1, in assay [1] (OSC induction), the “BMP4 concentration at which FOXL2 expression peaks” value stood at 10 ng/mL and the “concentration at which the BMP4 effect saturates for OSCs” value turned out to be 20 ng/mL. In assay [1] (higher BMP4 concentration), the “expression of GATA4” value is reported as “increased”.

B2: BMP15: BMP isoform in gonadal induction medium (protein, UniProt O95972 268-392, looked up)
Bone morphogenetic protein 15: QADGISAEVTASSSKHSGPENNQCSLHPFQISFRQLGWDHWIIAPPFYTPNYCKGTCLRVLRDGLNSPNHAIIQNLINQLVDQSVPRPSCVPYKYVPISVLMIEANGSILYKEYEGMIAESCTCR
Consider B2, for which, in assay [2], the “expression of bipotential gonadal markers (WT1, LHX9, GADD45G, GATA4) compared to BMP4” value is given as “comparable or higher” and the “expression of granulosa markers (FOXL2, NR1H4, KITLG) compared to BMP4” value is given as “comparable or higher”.

B3: FGF17: fibroblast growth factor family member (protein, UniProt O60258 23-216, looked up)
Fibroblast growth factor 17: TQGENHPSPNFNQYVRDQGAMTDQLSRRQIREYQLYSRTSGKHVQVTGRRISATAEDGNKFAKLIVETDTFGSRVRIKGAESEKYICMNKRGKLIGKPSGKSKDCVFTEIVLENNYTAFQNARHEGWFMAFTRQGRPRQASRSRQNQREAHFIKRLYQGQLPFPNHAEKQKQFEFVGSAPTRRTKRTRRPQPLT
For the molecule B3, in assay [3], the “expression of bipotential gonadal markers (WT1, LHX9, GADD45G, GATA4) compared to FGF2” value (“expression … compared to FGF2” for short) is reported as “comparable or higher” and the “expression of granulosa markers (FOXL2, NR1H4, KITLG) compared to corresponding medium” value (“expression … compared to corresponding medium” below) is “comparable”.

B4: FGF18: fibroblast growth factor family member (protein, UniProt O76093 28-207, looked up)
Fibroblast growth factor 18: EENVDFRIHVENQTRARDDVSRKQLRLYQLYSRTSGKHIQVLGRRISARGEDGDKYAQLLVETDTFGSQVRIKGKETEFYLCMNRKGKLVGKPDGTSKECVFIEKVLENNYTALMSAKYSGWYVGFTKKGRPRKGPKTRENQQDVHFMKRYPKGQPELQKPFKYTTVTKRSRRIRPTHPA
With B4, in assay [3], the “expression … compared to FGF2” value is listed as “comparable or higher” and the “expression … compared to corresponding medium” value is “comparable”.

B5: FGF10: fibroblast growth factor family member (protein, UniProt O15520 38-208, looked up)
Fibroblast growth factor 10: QALGQDMVSPEATNSSSSSFSSPSSAGRHVRSYNHLQGDVRWRKLFSFTKYFLKIEKNGKVSGTKKENCPYSILEITSVEIGVVAVKAINSNYYLAMNKKGKLYGSKEFNNDCKLKERIEENGYNTYASFNWQHNGRQMYVALNGKGAPRRGQKTRRKNTSAHFLPMVVHS
Consider B5, for which, in assay [3], the “expression … compared to FGF2” value is “comparable or higher” and the “expression … compared to corresponding medium” value is given as “comparable”.

B6: BMP7: BMP isoform in gonadal induction medium (protein, UniProt P18075 293-431, looked up)
Bone morphogenetic protein 7: STGSKQRSQNRSKTPKNQEALRMANVAENSSSDQRQACKKHELYVSFRDLGWQDWIIAPEGYAAYYCEGECAFPLNSYMNATNHAIVQTLVHFINPETVPKPCCAPTQLNAISVLYFDDSSNVILKKYRNMVVRACGCH
As to B6, in assay [2], the “expression of bipotential gonadal markers (WT1, LHX9, GADD45G, GATA4) compared to BMP4” value is reported as “comparable or higher” and the “expression of granulosa markers (FOXL2, NR1H4, KITLG) compared to BMP4” value is recorded as “comparable or higher”.

B7: follistatin: protein component of gonadal induction medium (protein, UniProt P19883 30-344, looked up)
Follistatin: GNCWLRQAKNGRCQVLYKTELSKEECCSTGRLSTSWTEEDVNDNTLFKWMIFNGGAPNCIPCKETCENVDCGPGKKCRMNKKNKPRCVCAPDCSNITWKGPVCGLDGKTYRNECALLKARCKEQPELEVQYQGRCKKTCRDVFCPGSSTCVVDQTNNAYCVTCNRICPEPASSEQYLCGNDGVTYSSACHLRKATCLLGRSIGLAYEGKCIKAKSCEDIQCTGGKKCLWDFKVGRGRCSLCDELCPDSKSDEPVCASDNATYASECAMKEAACSSGVLLEVKHSGSCNSISEDTEEEEEDEDQDYSFPISSILEW
Turning to B7, the “GATA4 expression on removing follistatin altogether” value in assay [1] (0 ng/mL follistatin, BMP4 20 ng/ml) was “increase”. Also, the FOXL2 expression entry in assay [1] (25 ng/ml follistatin, no further increase at higher concentrations) is listed as “marginal increase”; in assay [1] (higher concentrations of follistatin, BMP4 20 ng/ml), “marginal increase”.
